The source of these data is patent publication US20110159037A1.

For assay [1], the target named is HIV-1 envelope gp41 (virus of the PBMC neutralization assay) (HIV-1, isolate not stated).
The target of assay [2] is Centromere B (Homo sapiens (Human)) (UniProt P07199). Put plainly: Luminex AtheNA Multi-Lyte ANA Test, 0.15 µg mab per test.
A further assay addresses Histones. The assay is described as above.
In another assay the target is Ro (SSA). The description is as above.

13H11 (antibody): in assay [1], the HIV Neutralization ID50 In PBMC assay was greater than 50 µg/mL.

For Mab 2F5 (antibody), the HIV Neutralization ID50 In PBMC assay in assay [1] was 1 µg/mL. Moreover, the results for the relative units (relative units based on a standard curve) (in assay [2]; with Histones; with Ro (SSA)) were 1780, 1010 and 290, respectively.

In assay [1], 98-6 (antibody) came in with an HIV Neutralization ID50 In PBMC assay of 3.5 µg/mL.

As usually defined, the IC50 is the concentration needed to halve the response being measured. Read a low IC50 as greater potency. Consider “soluble HIV-1 Env gp140 oligomers (CON-S)”, for which the IC50 with Mab 4E10 was 0.145 µM.

Turning to A32 (antibody), in assay [2], the relative units (relative units based on a standard curve) came out at 1130.

Turning to IgG1b12 (antibody), the relative units (relative units based on a standard curve) in assay [2] turned out to be 479; with Histones, 185.

In the assay with Ro (SSA), Mab 4E10 (antibody) returned a relative units (relative units based on a standard curve) of 221.
